In patent US20210388087A1 (Chugai, published 2021):

B1: CE115HA000 S52cK one-arm antibody (antibody, human IgG1, kappa, L234A L235A, N297A, name in Kabat numbering)
heavy: QVQLVESGGGVVQPGRSLRLSCAASGFTFSNAWMHWVRQAPGKGLEWVAQIKAKKNNYATYYAESVKGRFTISRDDSKNSLYLQMNSLKTEDTAVYYCRYVHYGAYYGVDAWGQGTTVTVSSASTKGPSVFPLAPSSKSTSGGTAALGCLVKDYFPEPVTVSWNSGALTSGVHTFPAVLQSSGLYSLSSVVTVPSSSLGTQTYICNVNHKPSNTKVDKKVEPKSCDKTHTCPPCPAPEAAGGPSVFLFPPKPKDTLMISRTPEVTCVVVDVSHEDPEVKFNWYVDGVEVHNAKTKPREEQYASTYRVVSVLTVLHQDWLNGKEYKCKVSNKALPAPIEKTISKAKGQPREPQVYTLPPSRCELTKNQVSLSCAVKGFYPSDIAVEWESNGQPENNYKTTPPVLDSDGSFFLVSKLTVDKSRWQQGNVFSCSVMHEALHNHYTQKSLSLSPDYKDDDDK
chain: EPKSSDKTHTCPPCPAPELLGGPSVFLFPPKPKDTLMISRTPEVTCVVVDVSHEDPEVKFNWYVDGVEVHNAKTKPREEQYNSTYRVVSVLTVLHQDWLNGKEYKCKVSNKALPAPIEKTISKAKGQPREPQVCTLPPSRDELTKNQVSLWCLVKGFYPSDIAVEWESNGQPENNYKTTPPVLDSDGSFFLYSKLTVDKSRWQQGNVFSCSVMHEALHNRYTQKSLSLSP
light: DIVMTQSPLSLPVTPGEPASISCRSSQSLVHSNRNTYLHWYQQKPGQAPRLLIYKVSNRFSGVPDRFSGSGSGTDFTLKISRVEAEDVGVYYCGQGTQVPYTFGQGTKLEIKRTVAAPSVFIFPPSDEQLKSGTASVVCLLNNFYPREAKVQWKVDNALQSGNSQESVTEQDSKDSTYSLSSTLTLSKADYEKHKVYACEVTHQGLSSPVTKSFNRGEC
B2: CE115HA000 S52cL one-arm antibody (antibody, human IgG1, kappa, L234A L235A, N297A, name in Kabat numbering)
heavy: QVQLVESGGGVVQPGRSLRLSCAASGFTFSNAWMHWVRQAPGKGLEWVAQIKAKLNNYATYYAESVKGRFTISRDDSKNSLYLQMNSLKTEDTAVYYCRYVHYGAYYGVDAWGQGTTVTVSSASTKGPSVFPLAPSSKSTSGGTAALGCLVKDYFPEPVTVSWNSGALTSGVHTFPAVLQSSGLYSLSSVVTVPSSSLGTQTYICNVNHKPSNTKVDKKVEPKSCDKTHTCPPCPAPEAAGGPSVFLFPPKPKDTLMISRTPEVTCVVVDVSHEDPEVKFNWYVDGVEVHNAKTKPREEQYASTYRVVSVLTVLHQDWLNGKEYKCKVSNKALPAPIEKTISKAKGQPREPQVYTLPPSRCELTKNQVSLSCAVKGFYPSDIAVEWESNGQPENNYKTTPPVLDSDGSFFLVSKLTVDKSRWQQGNVFSCSVMHEALHNHYTQKSLSLSPDYKDDDDK
chain: EPKSSDKTHTCPPCPAPELLGGPSVFLFPPKPKDTLMISRTPEVTCVVVDVSHEDPEVKFNWYVDGVEVHNAKTKPREEQYNSTYRVVSVLTVLHQDWLNGKEYKCKVSNKALPAPIEKTISKAKGQPREPQVCTLPPSRDELTKNQVSLWCLVKGFYPSDIAVEWESNGQPENNYKTTPPVLDSDGSFFLYSKLTVDKSRWQQGNVFSCSVMHEALHNRYTQKSLSLSP
light: DIVMTQSPLSLPVTPGEPASISCRSSQSLVHSNRNTYLHWYQQKPGQAPRLLIYKVSNRFSGVPDRFSGSGSGTDFTLKISRVEAEDVGVYYCGQGTQVPYTFGQGTKLEIKRTVAAPSVFIFPPSDEQLKSGTASVVCLLNNFYPREAKVQWKVDNALQSGNSQESVTEQDSKDSTYSLSSTLTLSKADYEKHKVYACEVTHQGLSSPVTKSFNRGEC
B3: CE115HA000 S52cV one-arm antibody (antibody, human IgG1, kappa, L234A L235A, N297A, name in Kabat numbering)
heavy: QVQLVESGGGVVQPGRSLRLSCAASGFTFSNAWMHWVRQAPGKGLEWVAQIKAKVNNYATYYAESVKGRFTISRDDSKNSLYLQMNSLKTEDTAVYYCRYVHYGAYYGVDAWGQGTTVTVSSASTKGPSVFPLAPSSKSTSGGTAALGCLVKDYFPEPVTVSWNSGALTSGVHTFPAVLQSSGLYSLSSVVTVPSSSLGTQTYICNVNHKPSNTKVDKKVEPKSCDKTHTCPPCPAPEAAGGPSVFLFPPKPKDTLMISRTPEVTCVVVDVSHEDPEVKFNWYVDGVEVHNAKTKPREEQYASTYRVVSVLTVLHQDWLNGKEYKCKVSNKALPAPIEKTISKAKGQPREPQVYTLPPSRCELTKNQVSLSCAVKGFYPSDIAVEWESNGQPENNYKTTPPVLDSDGSFFLVSKLTVDKSRWQQGNVFSCSVMHEALHNHYTQKSLSLSPDYKDDDDK
chain: EPKSSDKTHTCPPCPAPELLGGPSVFLFPPKPKDTLMISRTPEVTCVVVDVSHEDPEVKFNWYVDGVEVHNAKTKPREEQYNSTYRVVSVLTVLHQDWLNGKEYKCKVSNKALPAPIEKTISKAKGQPREPQVCTLPPSRDELTKNQVSLWCLVKGFYPSDIAVEWESNGQPENNYKTTPPVLDSDGSFFLYSKLTVDKSRWQQGNVFSCSVMHEALHNRYTQKSLSLSP
light: DIVMTQSPLSLPVTPGEPASISCRSSQSLVHSNRNTYLHWYQQKPGQAPRLLIYKVSNRFSGVPDRFSGSGSGTDFTLKISRVEAEDVGVYYCGQGTQVPYTFGQGTKLEIKRTVAAPSVFIFPPSDEQLKSGTASVVCLLNNFYPREAKVQWKVDNALQSGNSQESVTEQDSKDSTYSLSSTLTLSKADYEKHKVYACEVTHQGLSSPVTKSFNRGEC
B4: CE115HA000 S62D one-arm antibody (antibody, human IgG1, kappa, L234A L235A, N297A, name in Kabat numbering)
heavy: QVQLVESGGGVVQPGRSLRLSCAASGFTFSNAWMHWVRQAPGKGLEWVAQIKAKSNNYATYYAEDVKGRFTISRDDSKNSLYLQMNSLKTEDTAVYYCRYVHYGAYYGVDAWGQGTTVTVSSASTKGPSVFPLAPSSKSTSGGTAALGCLVKDYFPEPVTVSWNSGALTSGVHTFPAVLQSSGLYSLSSVVTVPSSSLGTQTYICNVNHKPSNTKVDKKVEPKSCDKTHTCPPCPAPEAAGGPSVFLFPPKPKDTLMISRTPEVTCVVVDVSHEDPEVKFNWYVDGVEVHNAKTKPREEQYASTYRVVSVLTVLHQDWLNGKEYKCKVSNKALPAPIEKTISKAKGQPREPQVYTLPPSRCELTKNQVSLSCAVKGFYPSDIAVEWESNGQPENNYKTTPPVLDSDGSFFLVSKLTVDKSRWQQGNVFSCSVMHEALHNHYTQKSLSLSPDYKDDDDK
chain: EPKSSDKTHTCPPCPAPELLGGPSVFLFPPKPKDTLMISRTPEVTCVVVDVSHEDPEVKFNWYVDGVEVHNAKTKPREEQYNSTYRVVSVLTVLHQDWLNGKEYKCKVSNKALPAPIEKTISKAKGQPREPQVCTLPPSRDELTKNQVSLWCLVKGFYPSDIAVEWESNGQPENNYKTTPPVLDSDGSFFLYSKLTVDKSRWQQGNVFSCSVMHEALHNRYTQKSLSLSP
light: DIVMTQSPLSLPVTPGEPASISCRSSQSLVHSNRNTYLHWYQQKPGQAPRLLIYKVSNRFSGVPDRFSGSGSGTDFTLKISRVEAEDVGVYYCGQGTQVPYTFGQGTKLEIKRTVAAPSVFIFPPSDEQLKSGTASVVCLLNNFYPREAKVQWKVDNALQSGNSQESVTEQDSKDSTYSLSSTLTLSKADYEKHKVYACEVTHQGLSSPVTKSFNRGEC
B5: CE115HA000 S52cY one-arm antibody (antibody, human IgG1, kappa, L234A L235A, N297A, name in Kabat numbering)
heavy: QVQLVESGGGVVQPGRSLRLSCAASGFTFSNAWMHWVRQAPGKGLEWVAQIKAKYNNYATYYAESVKGRFTISRDDSKNSLYLQMNSLKTEDTAVYYCRYVHYGAYYGVDAWGQGTTVTVSSASTKGPSVFPLAPSSKSTSGGTAALGCLVKDYFPEPVTVSWNSGALTSGVHTFPAVLQSSGLYSLSSVVTVPSSSLGTQTYICNVNHKPSNTKVDKKVEPKSCDKTHTCPPCPAPEAAGGPSVFLFPPKPKDTLMISRTPEVTCVVVDVSHEDPEVKFNWYVDGVEVHNAKTKPREEQYASTYRVVSVLTVLHQDWLNGKEYKCKVSNKALPAPIEKTISKAKGQPREPQVYTLPPSRCELTKNQVSLSCAVKGFYPSDIAVEWESNGQPENNYKTTPPVLDSDGSFFLVSKLTVDKSRWQQGNVFSCSVMHEALHNHYTQKSLSLSPDYKDDDDK
chain: EPKSSDKTHTCPPCPAPELLGGPSVFLFPPKPKDTLMISRTPEVTCVVVDVSHEDPEVKFNWYVDGVEVHNAKTKPREEQYNSTYRVVSVLTVLHQDWLNGKEYKCKVSNKALPAPIEKTISKAKGQPREPQVCTLPPSRDELTKNQVSLWCLVKGFYPSDIAVEWESNGQPENNYKTTPPVLDSDGSFFLYSKLTVDKSRWQQGNVFSCSVMHEALHNRYTQKSLSLSP
light: DIVMTQSPLSLPVTPGEPASISCRSSQSLVHSNRNTYLHWYQQKPGQAPRLLIYKVSNRFSGVPDRFSGSGSGTDFTLKISRVEAEDVGVYYCGQGTQVPYTFGQGTKLEIKRTVAAPSVFIFPPSDEQLKSGTASVVCLLNNFYPREAKVQWKVDNALQSGNSQESVTEQDSKDSTYSLSSTLTLSKADYEKHKVYACEVTHQGLSSPVTKSFNRGEC
B6: CE115HA000 S52cQ one-arm antibody (antibody, human IgG1, kappa, L234A L235A, N297A, name in Kabat numbering)
heavy: QVQLVESGGGVVQPGRSLRLSCAASGFTFSNAWMHWVRQAPGKGLEWVAQIKAKQNNYATYYAESVKGRFTISRDDSKNSLYLQMNSLKTEDTAVYYCRYVHYGAYYGVDAWGQGTTVTVSSASTKGPSVFPLAPSSKSTSGGTAALGCLVKDYFPEPVTVSWNSGALTSGVHTFPAVLQSSGLYSLSSVVTVPSSSLGTQTYICNVNHKPSNTKVDKKVEPKSCDKTHTCPPCPAPEAAGGPSVFLFPPKPKDTLMISRTPEVTCVVVDVSHEDPEVKFNWYVDGVEVHNAKTKPREEQYASTYRVVSVLTVLHQDWLNGKEYKCKVSNKALPAPIEKTISKAKGQPREPQVYTLPPSRCELTKNQVSLSCAVKGFYPSDIAVEWESNGQPENNYKTTPPVLDSDGSFFLVSKLTVDKSRWQQGNVFSCSVMHEALHNHYTQKSLSLSPDYKDDDDK
chain: EPKSSDKTHTCPPCPAPELLGGPSVFLFPPKPKDTLMISRTPEVTCVVVDVSHEDPEVKFNWYVDGVEVHNAKTKPREEQYNSTYRVVSVLTVLHQDWLNGKEYKCKVSNKALPAPIEKTISKAKGQPREPQVCTLPPSRDELTKNQVSLWCLVKGFYPSDIAVEWESNGQPENNYKTTPPVLDSDGSFFLYSKLTVDKSRWQQGNVFSCSVMHEALHNRYTQKSLSLSP
light: DIVMTQSPLSLPVTPGEPASISCRSSQSLVHSNRNTYLHWYQQKPGQAPRLLIYKVSNRFSGVPDRFSGSGSGTDFTLKISRVEAEDVGVYYCGQGTQVPYTFGQGTKLEIKRTVAAPSVFIFPPSDEQLKSGTASVVCLLNNFYPREAKVQWKVDNALQSGNSQESVTEQDSKDSTYSLSSTLTLSKADYEKHKVYACEVTHQGLSSPVTKSFNRGEC

Biological target: T1, CD3 epsilon homodimer protein (UniProt P07766 23-126)
T1 construct: immobilized on Sensor chip CM4 by amine coupling; also called CD3 (CD3 epsilon)
Test: SPR (Biacore T200), CD3 epsilon homodimer on CM4 chip, one-arm antibody as analyte, 25 C;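 note: homodimer attached to the sensor surface via amine coupling, HBS-EP+ used as running buffer during binding runs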

T1 sequence (P07766 23-126): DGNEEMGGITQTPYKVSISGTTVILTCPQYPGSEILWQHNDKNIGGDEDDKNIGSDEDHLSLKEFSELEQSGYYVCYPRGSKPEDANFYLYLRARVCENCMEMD

| Binder | ratio of amounts bound (altered form / CE115HA000) |
| --- | --- |
| B1 | 1.19 |
| B2 | 0.98 |
| B3 | 0.93 |
| B4 | 0.92 |
| B5 | 1.11 |
| B6 | 1.04 |
